From patent EP4737482A1 (Atheon Bio, Inc., dated 2026) come the findings set out here.

T1: human MYCT1 (hMYCT1) (human, UniProt Q8N699 1-235, limits assumed)
T1 construct: also called MYC Target 1
T1 sequence: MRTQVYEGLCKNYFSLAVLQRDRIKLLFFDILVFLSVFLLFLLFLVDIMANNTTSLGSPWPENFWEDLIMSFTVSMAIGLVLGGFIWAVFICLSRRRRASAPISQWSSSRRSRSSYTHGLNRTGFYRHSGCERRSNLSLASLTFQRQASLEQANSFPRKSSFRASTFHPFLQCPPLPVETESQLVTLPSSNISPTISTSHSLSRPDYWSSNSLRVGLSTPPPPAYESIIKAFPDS

B1: 2B4-z2-uIgG1K (antibody, V domains shown)
VH: QVQLVQSGAEVKKPGASVKVSCKASGYTFTDYNMHWVRQAPGQGLEWMGYINPNNGGSSYNRKFKGRVTMTTDTSTSTAYMELRSLRSDDTAVYYCATRFDVWGQGTTVTVSS
VL: DVVMTQSPLSLPVTLGQPASISCKSSQSLLFSDGKTYLNWLQQRPGQSPRRLIYLVSKLDSGVPDRFSGSGSGTDFTLKISRVEAEDVGVYYCWQGTHFPQTFGGGTKVEIK
B2: 2B4-z15-uIgG1K (antibody, V domains shown)
VH: QVQLVQSGAEVKKPGASVKMSCKASGYTFTDYNMHWVRQAPGQGLEWIGYINPNNGGSSYNRKFKGRVTLTVDKSTRTAYMELRSLRSDDTAVYYCATRFDVWGQGTTVTVSS
VL: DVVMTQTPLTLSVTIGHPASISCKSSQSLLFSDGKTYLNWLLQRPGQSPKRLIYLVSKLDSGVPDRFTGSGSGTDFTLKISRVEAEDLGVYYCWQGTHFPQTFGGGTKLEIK
B3: 2B4-z6-uIgG1K (antibody, V domains shown)
VH: QVQLVQSGAEVKKPGASVKVSCKASGYTFTDYNMHWVRQAPGQGLEWMGYINPNNGGSSYNRKFKGRVTMTTDTSTRTAYMELRSLRSDDTAVYYCATRFDVWGQGTTVTVSS
VL: DVVMTQSPLSLPVTLGQPASISCKSSQSLLFSDGKTYLNWLQQRPGQSPRRLIYLVSKLDSGVPDRFSGSGSGTDFTLKISRVEAEDVGVYYCWQGTHFPQTFGGGTKVEIK
B4: 2B4-z13-uIgG1K (antibody, V domains shown)
VH: QVQLVQSGAEVKKPGASVKMSCKASGYTFTDYNMHWVRQAPGQGLEWIGYINPNNGGSSYNRKFKGRVTLTVDKSTRTAYMELRSLRSDDTAVYYCATRFDVWGQGTTVTVSS
VL: DVVMTQSPLSLPVTLGQPASISCKSSQSLLFSDGKTYLNWLQQRPGQSPRRLIYLVSKLDSGVPDRFSGSGSGTDFTLKISRVEAEDVGVYYCWQGTHFPQTFGGGTKVEIK
B5: 2B4-z10-uIgG1K (antibody, V domains shown)
VH: QVQLVQSGAEVKKPGASVKVSCKASGYTFTDYNMHWVRQAPGQGLEWMGYINPNNGGSSYNRKFKGRVTMTVDKSTRTAYMELRSLRSDDTAVYYCATRFDVWGQGTTVTVSS
VL: DVVMTQSPLSLPVTLGQPASISCKSSQSLLFSDGKTYLNWLQQRPGQSPRRLIYLVSKLDSGVPDRFSGSGSGTDFTLKISRVEAEDVGVYYCWQGTHFPQTFGGGTKVEIK
B6: 2B4-z8-uIgG1K (antibody, V domains shown)
VH: QVQLVQSGAEVKKPGASVKVSCKASGYTFTDYNMHWVRQAPGQGLEWIGYINPNNGGSSYNRKFKGRVTMTTDTSTSTAYMELRSLRSDDTAVYYCATRFDVWGQGTTVTVSS
VL: DVVMTQSPLSLPVTLGQPASISCKSSQSLLFSDGKTYLNWLQQRPGQSPRRLIYLVSKLDSGVPDRFSGSGSGTDFTLKISRVEAEDVGVYYCWQGTHFPQTFGGGTKVEIK
B7: 2B4-z7-uIgG1K (antibody, V domains shown)
VH: QVQLVQSGAEVKKPGASVKMSCKASGYTFTDYNMHWVRQAPGQGLEWMGYINPNNGGSSYNRKFKGRVTMTTDTSTSTAYMELRSLRSDDTAVYYCATRFDVWGQGTTVTVSS
VL: DVVMTQSPLSLPVTLGQPASISCKSSQSLLFSDGKTYLNWLQQRPGQSPRRLIYLVSKLDSGVPDRFSGSGSGTDFTLKISRVEAEDVGVYYCWQGTHFPQTFGGGTKVEIK
B8: 2B4-z11-uIgG1K (antibody, V domains shown)
VH: QVQLVQSGAEVKKPGASVKVSCKASGYTFTDYNMHWVRQAPGQGLEWMGYINPNNGGSSYNRKFKGRVTLTVDKSTRTAYMELRSLRSDDTAVYYCATRFDVWGQGTTVTVSS
VL: DVVMTQSPLSLPVTLGQPASISCKSSQSLLFSDGKTYLNWLQQRPGQSPRRLIYLVSKLDSGVPDRFSGSGSGTDFTLKISRVEAEDVGVYYCWQGTHFPQTFGGGTKVEIK
B9: 2B4-z3-uIgG1K (antibody, V domains shown)
VH: QVQLVQSGAEVKKPGASVKVSCKASGYTFTDYNMHWVRQAPGQGLEWMGYINPNNGGSSYNRKFKGRVTLTTDTSTSTAYMELRSLRSDDTAVYYCATRFDVWGQGTTVTVSS
VL: DVVMTQSPLSLPVTLGQPASISCKSSQSLLFSDGKTYLNWLQQRPGQSPRRLIYLVSKLDSGVPDRFSGSGSGTDFTLKISRVEAEDVGVYYCWQGTHFPQTFGGGTKVEIK
B10: 2B4-z5-uIgG1K (antibody, V domains shown)
VH: QVQLVQSGAEVKKPGASVKVSCKASGYTFTDYNMHWVRQAPGQGLEWMGYINPNNGGSSYNRKFKGRVTMTTDKSTSTAYMELRSLRSDDTAVYYCATRFDVWGQGTTVTVSS
VL: DVVMTQSPLSLPVTLGQPASISCKSSQSLLFSDGKTYLNWLQQRPGQSPRRLIYLVSKLDSGVPDRFSGSGSGTDFTLKISRVEAEDVGVYYCWQGTHFPQTFGGGTKVEIK
B11: 2B4-z4-uIgG1K (antibody, V domains shown)
VH: QVQLVQSGAEVKKPGASVKVSCKASGYTFTDYNMHWVRQAPGQGLEWMGYINPNNGGSSYNRKFKGRVTMTVDTSTSTAYMELRSLRSDDTAVYYCATRFDVWGQGTTVTVSS
VL: DVVMTQSPLSLPVTLGQPASISCKSSQSLLFSDGKTYLNWLQQRPGQSPRRLIYLVSKLDSGVPDRFSGSGSGTDFTLKISRVEAEDVGVYYCWQGTHFPQTFGGGTKVEIK
B12: 2B4-z12-uIgG1K (antibody, V domains shown)
VH: QVQLVQSGAEVKKPGASVKMSCKASGYTFTDYNMHWVRQAPGQGLEWMGYINPNNGGSSYNRKFKGRVTLTVDKSTRTAYMELRSLRSDDTAVYYCATRFDVWGQGTTVTVSS
VL: DVVMTQSPLSLPVTLGQPASISCKSSQSLLFSDGKTYLNWLQQRPGQSPRRLIYLVSKLDSGVPDRFSGSGSGTDFTLKISRVEAEDVGVYYCWQGTHFPQTFGGGTKVEIK
B13: 11B6-z10-p3-uIgG1K (antibody, V domains shown)
VH: EVQLVESGGGLVKPGGSLRLSCAASGFTFSDFGIHWVRQAPGKGLEWVGYISSGSRTIHYADTVKGRFTISRDNAKNSLYLQMNSLRAEDTAVYYCARRDWDPEWLAYWGQGTLVTVSS
VL: DVVMTQSPLSLPVTPGEPASISCRSSLSLVHSNAHTYLHWYLQKPGQSPQLLIYKVSNRFSGVPDRFSGSGSGTDFTLKISRVEAEDVGVYFCSQSTHVPFTFGQGTKLEIK
B14: 11B6-z12-p3-uIgG1K (antibody, V domains shown)
VH: EVQLVESGGGLVKPGGSLRLSCAASGFTFSDFGIHWVRQAPGKGLEWVGYISSGSRTIHYADTVKGRFTISRDNAKNSLYLQMNSLRAEDTAIYYCARRDWDPEWLAYWGQGTLVTVSS
VL: DVVMTQSPLSLPVTPGEPASISCRSSLSLVHSNAHTYLHWYLQKPGQSPKLLIYKVSNRFSGVPDRFSGSGSGTDFTLKIRRVEAEDVGVYFCSQSTHVPFTFGQGTKLEIK
B15: 11B6-z16-p3-uIgG1K (antibody, V domains shown)
VH: EVQLVESGGGLVKPGGSLRLSCAASGFTFSDFGIHWVRQAPGKGLEWVGYISSGSRTIHYADTVKGRFTISRDNAKNSLYLQMNSLRAEDTAVYYCARRDWDPEWLAYWGQGTLVTVSS
VL: DIVMTQSPLSLPVTPGEPASISCRSSLSLVHSNAHTYLHWYLQKPGQSPKLLIYKVSNRFSGVPDRFSGSGSGTDFTLKISRVEAEDVGVYFCSQSTHVPFTFGQGTKLEIK
notes: also called hzATN001; ATN001

For the first experiment, the target named is T1, human MYCT1 (hMYCT1). The experiment can be described thus: SPR (Biacore 8K), antibody captured via anti-human Fc IgG, MYCT1 as analyte, steady-state affinity model.
For the molecule B1, the Kd (usually the constant that tells how readily two partners part at equilibrium) came out at 368 nM.

For B2, binding was characterised by a dissociation constant (Kd) of 617 nM.

B3 yielded a Kd of 447 nM.

Molecule B4 came in with a Kd of 443 nM.

With B5, the Kd stood at 456 nM.

With B6, the Kd came out at 321 nM.

Regarding B7, the Kd stood at 382 nM.

Consider B8, for which the Kd was 449 nM.

In the case of B9, the Kd was found to be 332 nM.

B10 had a Kd of 351 nM.

On to B11, for which the Kd is 354 nM.

Turning to B12, the Kd is 428 nM.

The target in a further experiment is T1, human MYCT1 (hMYCT1). The experiment can be described thus: SPR full kinetics, multicycle, antibody captured via anti-human Fc IgG, MYCT1 0.625-10 nM as analyte, 1:1 binding model.
Turning to B13, the dissociation constant Kd came out at 3.34 nM; the koff (usually a measure of how fast the partners let go of each other) came to 0.0122 s⁻¹; the kon – broadly, the second-order rate constant of association – amounted to 3.65e+06 M⁻¹ s⁻¹.

B14 yielded a Kd of 2.35 nM, a koff of 0.00786 s⁻¹ and an on-rate (kon) of 3.35e+06 M⁻¹ s⁻¹.

For B15, the Kd was 2.53 nM, the koff worked out at 0.00841 s⁻¹ and the kon turned out to be 3.32e+06 M⁻¹ s⁻¹.
